Assay results reported in the nanobody polyreactivity screen of Harvey et al. (2022).

experiment: yeast display, Sf9 membrane polyspecificity reagent, FACS + sequencing; frameworks hold sequencing errors
In short: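 Galactose-induced (36–48 hours) yeast carrying a synthetic nanobody display library were exposed to 10% biotinylated, detergent-solubilized Sf9 membrane reagent at 4 °C for 1 hour. FACS followed streptavidin microbead enrichment, using low and high (top ~1%) gates for expression (anti-HA) and reagent binding (streptavidin). Colony PCR, MiSeq 2 × 250 sequencing and CDR-length filtering followed. Labels for polyreactivity reflect the gate of origin.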

| Sequence | polyreactivity (PSR sort gate) |
| --- | --- |
| QVQLVESGGGLVQAGGSLRLICAASGSTQVYYAMGWYRQAPGKETELVASINHSGARTRYADSVKGRFTISRDNAKNTVYLQMNSLKPEVTAVYYCAAVARSTTYRYNYWGQGTQVTVSS | high polyreactivity |
| QVQLVESGGGLVQAGGSLRLICAASGSTRRYVMGWYRQAPGKERELVAVISRGGSTYYADSVKGRFTISRDNAKNTVYLQMNSLKPEDTAVYYCNVQPVIPRGGDYWGQGTQVTVSS | high polyreactivity |
| QVQLVESGGGLVQAGGSLRLICAASGSTSPYYTRGWYRQAPGKERELVASINESGGSTYYADSVKARFTISRDNAKNTVYLQMHTLKPEDTAGYNCNAEYTTPSYPVYSIDYYWFDYWGQGTQVTVSS | low polyreactivity |
| QVQLVESGGGLVQAGGSLRLICAASGYIFRDYAMGWYRQAPGKERELVATISSGGSTSYADSVKGRFTISRDNAKNTVYLQMNSLKPEDTAVYYCAADVANTSAEYYYWGQGTQVTVSS | low polyreactivity |
| QVQLVESGGGLVQAGGSLRLICAASGYIFRPNAMGWYRQAPGKERELVASISSGGSTYYADSVKGRFTISRDNAKNTVYLQMNSLKPEDTAVYYCNARHYPWFAAYGSYAYEYWGQGTQVTVSS | low polyreactivity |
| QVQLVESGGGLVQAGGSLRLICAASGYTFPRYTMGWYRQAPGKERELVAAITSSGSTNYADSVKGRFTISRDNAKNTVYLQMNCLKPEDTAVYYCATLYRDWWSGYLEVDYWGQGTQVTVSS | high polyreactivity |
| QVQLVESGGGLVQAGGSLRLICAASGYTFTGYAMGWYRQAPGKEREFVAGITWRTGRTYYADSVNGRFTISRDNAKNTVYLQMNSLKPEDTAVYYCAAVPWKRYDYYTPFARGYWGQGTQVTVSS | low polyreactivity |
| QVQLVESGGGLVQAGGSLRLICAASGYTLATYTMRWYIQAPGKERELVAAISFGGSTYYADSVKGRFTISRDNAKNTVYLQMNSLKPEDTAVYYCAVYGDSYWGAYYYSDGYWGQGTQVTVSS | low polyreactivity |
| QVQLVESGGGLVQAGGSLRLICAASRFTYYRNVMGWYRQAPGKERELVAPISRRGDRTYADSVKGRFTISRDNAKNTVYLQMNSLKPEDTAVYYFAPTPYSYWTRYYYWGQGTQVTVTS | high polyreactivity |
| QVQLVESGGGLVQAGGSLRLICAATGFTFLFYDMGWYRQAPGKERALVAASTSDGSTYYADSVKGRFTISRDNAKNTVYLQMNSLKPEDTAVYYCNADEPDEAYLYQSDYWGQGTQVTVSS | low polyreactivity |
| QVQLVESGGGLVQAGGSLRLICADSGRIFNRYAMGWYRQAPGKEREFVAGITWNGGSTYYADSVKGRFTISRDNSKNTVNLQMNSLKPEDTAVYYCAATHYYYGTSRYDYWGQGTQVTVSS | high polyreactivity |
| QVQLVESGGGLVQAGGSLRLICADSGSTFSPNGMGWYTQAHGKERELVAAITSVGSTYYAESVEGRFTISRDNELNTVYFQMNSLQPVDTAVFYCAKGQRDSEEYDYWGQGTQVTVSS | low polyreactivity |
| QVQLVESGGGLVQAGGSLRLICDASGLTFIRNAMGCYRQATGKERELVAAITRRGGSTYYADSVKGRFTISRDNAKNTVYLQMHSLQPEDTPVDYCARRLYPSASYDYDYWGQGTQETVSS | high polyreactivity |
| QVQLVESGGGLVQAGGSLRLICYASGSIFWVYAMGWYRQAPGKEWELVADIRYRDGSTHYADSVKGRFTISRDNAKNTVYLQMNSLKPEDTAVYYCAADDLPSTGYDYWGPGTQVTVSS | low polyreactivity |
| QVQLVESGGGLVQAGGSLRLIFAASGRTFVLNAMRWYRQAPGKEREFVAAISWGGVRTYYADSVKGRFTISRDNAKNTVYLQMNSLKPEDTAVYYCATCGSRYRRYDYWGQGTQVTVSS | high polyreactivity |
| QVQLVESGGGLVQAGGSLRLISAASGNIVYFNAMGWYRQAPGKERELVAAISRAGSTYYADSVKGRFTISRDNAKNTVYLQMNSLKQEDTAVYYCAATTGRPDNYYYWGQGTQVTVSS | high polyreactivity |
| QVQLVESGGGLVQAGGSLRLNCAASGSIFDDYAMGWYRQAPGKERELVAAINIRTGSTYYADSEKGRFTISRDNAKNTVYLQMNSLKPEDTAVYYCNSVVRGFVRHLDYWGQGTQVTVSS | low polyreactivity |
| QVQLVESGGGLVQAGGSLRLNCAASGSIFDKNAMGWYRQAPGKERELVAAISRSGGSTYYADSVKGRFTISRDNAKNTVYLQMNSLKPEVTAVYYCNKYTNGRNFDYWGQGTQVTVSS | high polyreactivity |
| QVQLVESGGGLVQAGGSLRLNCAASGSIFLIYAMGWYRQATGKERELVAGINWSGSRTYNADSVKGRFTISRDNAKNTVYLQMNSLKPEDTAVYYCAARVRRPLYSAYDSWGQGTQVTVSS | low polyreactivity |
| QVQLVESGGGLVQAGGSLRLNCAASGSIFTGNAMGWYRQAPGKERELVASITTSTDSTYYADSVKGRFTISRDNAKNTVYLQMNRLKTEDTAVYYCAAEYAVAWKYGLYFYFHFDYWGQGTQVTVSS | low polyreactivity |
| QVQLVESGGGLVQAGGSLRLRCAASGFIFQINAMGWYRQAPGKEREFVAAISRSVGSTSYADSVKGRFTISRDNAKNTVYLQMNSLKPEDTAVYYCNAAQRKRKGPYDYWGQGTQVTVSS | high polyreactivity |
| QVQLVESGGGLVQAGGSLRLRCAASGFIYIRNAMGWYRQAPGKERELVAAITRSGGRTYYADSVKGRFTISRDNAKNTVYLQMNSLIPEDTAVYYCASDAEAAWGQGTQVTVSS | high polyreactivity |

| Sequence | polyreactivity (PSR sort gate) |
| --- | --- |
| QVQLVESGGGLVQAGGSLRLRCAASGFTFQNYVMGWYRQAPGKESELVAAINSGGRTYYADSVKGRFTISRDYANNTVYLQMNSLKPEDTAVYFCKDRRGHYWGQGTQVTVSS | high polyreactivity |
| QVQLVESGGGLVQAGGSLRLRCAASGFTFYWYAMGWYRQAPGKEREIVAAIDQSGGSTYYADSVKGRFTISRDNAKNSVYLQMNSLKQEDTAVYYCAARYILWDGDSWTEFDYWGQGTQVTVSS | low polyreactivity |
| QVQLVESGGGLVQAGGSLRLRCAASGIIFTDYAMGWYRQAPGKERELVAAISSGGGSTYYAHSVKGRFTISRDNAKNTVYFLMNSLKPDVTAVYYCAAEGYLISGAGDYLYDYYWGQGTQVTVSS | high polyreactivity |
| QVQLVESGGGLVQAGGSLRLRCAASGIIFYGNAMGWYRPAPGQERELVAAISRRSGSTYYADSVKGRFTISRDTAKNTVYLQMNSLKPEDTAVYYGNKRAANAVTINDMDYWGQGTQVTVSS | high polyreactivity |
| QVQLVESGGGLVQAGGSLRLRCAASGIIFYRNVMGWYRQAPGKERELVAAISGRGGSTYYADSVKGRFTISRDNAKNTVYLQMNILKPEETAVYYCATDTRTWRFTRGAWYTYGSDYWGQGTQVTVSS | high polyreactivity |
| QVQLVESGGGLVQAGGSLRLRCAASGLIFIFNAMGWYRQAPGKERELVAAIDTSDDSTYYADSVKGRFTISRDNAKNTVYLQMNSMKPEDTAVYYCAAEELSNYEYWGQGTQVTVSS | low polyreactivity |
| QVQLVESGGGLVQAGGSLRLRCAASGLTFRKYPMGWYRPAPGKERELVATISRNGGSTYSADSVKGRFTISSDNAKITVYLQMNSLKPEDTAVYYCAADYYTYDYAGYGYWGQGTQVTVSS | high polyreactivity |
| QVQLVESGGGLVQAGGSLRLRCAASGLTYSNAMGWYRQAPGKERELVAAISWRGGRTYYADSVKGRFTISRDNAKNTVYLQMNSLKPEDTAVYYCAKYAHGHKWYGYWGQGTQVTVSS | low polyreactivity |
| QVQLVESGGGLVQAGGSLRLRCAASGRIFGYNDMGWYRQAPGKERELVAAINWTGGSTYYADSVKARFTISRDNSKNTVYLQMNSLKPEDTAVYYCNADARTKWVQTHTDFISDYDYWGQGTQVTVSS | low polyreactivity |
| QVQLVESGGGLVQAGGSLRLRCAASGRIFNNYAMGWYRPAPGKERELVAAISGSGGSTYYADSVKGRFTISRDNAKNNVYLQMNSLKPEDTAVYYCSTSGPHYFSRNFDYWGQGTQVTVSS | low polyreactivity |
| QVQLVESGGGLVQAGGSLRLRCAASGRIFVENAMGWYRQAPGKERELVATISSGDSTNYADSVKGRFTISRDNAKNTVYLQMNSLKPEDTAVYYCDAADGIIESDYWGQGTQVTVSS | low polyreactivity |
| QVQLVESGGGLVQAGGSLRLRCAASGRILWWYAMGWYRQAPGKERELVATITYSGGSTYADSVKGRFTISRDNAKNTVYLQMNSLKPEDTAVYYCAARLPLYYGKSDYWGQGTQVTVSS | high polyreactivity |
| QVQLVESGGGLVQAGGSLRLRCAASGRTFKPYVMGWNRQAPGKERELVAAISSRGGSTYYADSVKGRFTISRDNAKNTFYLQMNSLKPEDTAVYYCNAAYWFSNKYGYWGQGTQVTVAS | high polyreactivity |
| QVQLVESGGGLVQAGGSLRLRCAASGRTFRYYAMGWYRQAPGKERELVAVINYRGGSTYYADSVKGRFTISRDNEKNTVYLQMNSLKPEDTAVYYCAAQYIGWHLYWYDYWGQGTQVTVSS | low polyreactivity |
| QVQLVESGGGLVQAGGSLRLRCAASGRTFTYNAMVWYRQAPGKERELVPANNFSGVSTYYADSVKGRFTISRDNAKNTVYLQMNILKPEVTAVYYCAARGSARKSFPYPLEYWGQGTQVTVSS | high polyreactivity |
| QVQLVESGGGLVQAGGSLRLRCAASGSIFTDYAMGGYRQAPGKERELVAVIDIDGSTYYADSVKGRFTISRDNAKNTVYLQMNSLKPEDTAVYDCAAGYTYYSLYGYWGQGTQVTGSS | low polyreactivity |
| QVQLVESGGGLVQAGGSLRLRCAASGSIFTWYAMGWYRQAPAKERELVAAITRGGSTSADSVKGRFTISRDNAKNTVYLQMNSLKPEYTAVYYCNAVYGVYDFNYWGQGTQVTVSS | low polyreactivity |
| QVQLVESGGGLVQAGGSLRLRCAASGSIFVYNARGWYRPAPGKERELVPAISKSGGRTYYADSVKGRFTISRDNAKNTVYCQMHSLKPEDTAVYYCNALAGQRQGWEYDYWGQGTQVTVSS | high polyreactivity |
| QVQLVESGGGLVQAGGSLRLRCAASGSIFYLYAMGWFRRAPGKERELVAASSRSGASTYYADSVKGRFTISRDNAKNTVYLQMNSLKPEDTAVYYGAADYNSQLARIYDYWGQGTQVTVSS | low polyreactivity |
| QVQLVESGGGLVQAGGSLRLRCAASGSILYSYTMGWYRQAPGKERELVAALIRGGRTNYADSVKGRFTISRDNAKNTVYLQMNSLKPEDTAVYYCNTGSYAWSWRRAMDYWGQGTQVTVSS | high polyreactivity |
| QVQLVESGGGLVQAGGSLRLRCAASGSIMGRYAMGWYRQAPGKERELVAAITSSGTRTYYPDSVKGRFTISRDNANNTVYLQMNSLKPEDTAVYYCAAYLAITRSYYIVPYDYWGQGTQVTVSS | high polyreactivity |
